Earlier results on 1 substance are cited in paper PMC2739727.

Data set [1] addresses IL-13Rα1/IL-4Rα (Homo sapiens) (UniProt P78552).
For a further data set, the target named is IL-13Rα2 (Homo sapiens) (UniProt Q14627).
Sequence of UniProt Q14627 (Q14627 27-343): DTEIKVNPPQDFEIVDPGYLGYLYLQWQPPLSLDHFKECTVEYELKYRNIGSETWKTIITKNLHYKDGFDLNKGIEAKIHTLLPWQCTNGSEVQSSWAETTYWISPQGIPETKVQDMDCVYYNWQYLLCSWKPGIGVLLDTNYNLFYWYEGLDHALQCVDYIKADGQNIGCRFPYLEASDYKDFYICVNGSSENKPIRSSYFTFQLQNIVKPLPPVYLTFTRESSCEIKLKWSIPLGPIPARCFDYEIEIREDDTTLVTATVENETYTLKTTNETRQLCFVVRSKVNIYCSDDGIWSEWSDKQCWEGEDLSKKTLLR

Sequence of UniProt P78552 (P78552 22-343, chain 1 of 2): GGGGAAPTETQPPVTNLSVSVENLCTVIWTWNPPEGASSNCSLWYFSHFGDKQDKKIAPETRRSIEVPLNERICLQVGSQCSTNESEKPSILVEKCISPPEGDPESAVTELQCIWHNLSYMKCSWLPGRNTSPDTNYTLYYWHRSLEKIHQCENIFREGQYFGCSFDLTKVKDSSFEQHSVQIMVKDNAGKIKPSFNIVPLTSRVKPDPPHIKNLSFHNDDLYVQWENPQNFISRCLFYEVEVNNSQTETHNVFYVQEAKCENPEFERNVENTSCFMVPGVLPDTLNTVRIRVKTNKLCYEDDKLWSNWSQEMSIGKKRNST
Sequence of UniProt P78552 (P24394 26-232, chain 2 of 2, further chain): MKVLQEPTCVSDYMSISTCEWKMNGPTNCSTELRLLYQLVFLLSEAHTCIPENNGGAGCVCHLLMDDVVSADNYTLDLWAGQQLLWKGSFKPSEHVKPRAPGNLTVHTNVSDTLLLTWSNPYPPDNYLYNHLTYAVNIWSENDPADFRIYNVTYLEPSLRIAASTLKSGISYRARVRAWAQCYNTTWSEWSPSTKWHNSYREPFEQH

IL-13 (from UniProt P35225): the Kd (in data set [1]; with IL-13Rα2 (Homo sapiens)) was 0.2 nM in each case.
